{"source": "paper PMC4660199", "about": "(Nature Communications, 2015)", "binders": {"B1": {"name": "A3CT motif II peptide (peptide)", "chain": "IISAGRAKRSI", "modifications": "The exact ends of the peptide are not printed. 369-379 is the region the text gives as including motif II, so the assayed peptide may be longer. Terminal chemistry is not stated."}, "B2": {"name": "cpSRP43 CD3 (domain or fragment, UniProt O22265 316-373, looked up)", "chain": "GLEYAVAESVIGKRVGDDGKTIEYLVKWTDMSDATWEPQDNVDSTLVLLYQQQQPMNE", "notes": "Gly316 is the N-terminal residue in the CD3 constructs; also called CD3 only; cpSRP43 CD3 deletion construct; source: E. coli Rosetta2 pLysS, purified (as His6-Trx fusion with a cleavable TEV site; Superdex75); not shown: His6, N-terminal, cleaved; thioredoxin (Trx), N-terminal, cleaved"}, "B3": {"name": "A3CT IV peptide (peptide, UniProt Q8LBP4 434-461, looked up)", "peptide": "GALASSTTSKPLPEVGQRRSKRSKRKRT", "modifications": "also: 15N,13C labelled where it is the observed NMR partner", "notes": "Alb3 C-terminal 28 residues including motif IV, residues 434-461 (holds 454-KRSKRKR-460); The ITC methods also say that peptides were purchased from PSL; also called A3CT motif IV; motif IV; source: E. coli BL21, purified (His6-GST fusion, TEV cleavage, HisTrap, Superdex75); not shown: His6, N-terminal, cleaved; GST, N-terminal, cleaved"}, "B4": {"name": "A3CT IV (residues 440–461) as joined to CD2CD3 in the fusion construct (peptide, UniProt Q8LBP4 440-461, looked up)", "peptide": "TTSKPLPEVGQRRSKRSKRKRT", "notes": "Alb3 C-terminal tail motif IV, residues 440-461; residues 453-461 are ordered in the structure, 454-KRSKRKR-460 is threaded into CD3; Stood on one chain with CD2CD3 through a (GS)3 linker; also called A3CT motif IV; motif IV; source: E. coli Rosetta2 (DE3) pLysS, purified as part of His6–Trx–CD2CD3–IV"}}, "conditions_in_all_cases": "both partners purified", "key": {"full-length cpSRP43": {"target": "T1, full-length cpSRP43 (UniProt O22265 57-373)", "T1 construct": "cpSRP43, the 43-kDa subunit of the chloroplast signal recognition particle (CD1, Ank1-4, CD2, CD3); called full-length in the results; the chloroplast transit peptide may be absent from the recombinant protein (surmise); also called cpSRP43 wild-type; source: E. coli Rosetta (DE3) pLysS, purified (HisTrap, size-exclusion chromatography)", "test": "ITC; VP-ITC, 20 °C, 20 mM Hepes (pH 7.5), 150 mM NaCl, 5 mM MgCl2, 0.25 mM TCEP; 0.01–0.1 mM in the cell, 0.1–1.0 mM in the syringe; duplicate or triplicate"}, "[1]": {"target": "T2, A3CT (Alb3 C-terminal tail) produced as His6-Trx fusion for NMR (UniProt Q8LBP4 363-462, 15N,13C labelled where it is the observed partner in NMR)", "T2 construct": "Alb3 insertase C-terminal tail; the A3CT constructs encode residues 363-462; this one is used for all NMR rows; also called Trx–A3CT", "T2 sequence (looked up)": "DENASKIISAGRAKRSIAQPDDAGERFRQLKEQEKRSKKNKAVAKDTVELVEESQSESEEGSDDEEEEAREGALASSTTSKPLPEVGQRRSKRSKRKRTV", "test": "NMR titration; 1H,15N HSQC chemical shift perturbations of the labelled partner on stepwise addition of the unlabelled ligand, 298 K, 20 mM Na-phosphate (pH 6.5), 150 mM NaCl"}, "cpSRP43 CD2CD3 [2]": {"target": "T3, cpSRP43 CD2CD3 (UniProt O22265 264-373, 15N,13C labelled where it is the observed partner in NMR)", "T3 construct": "cpSRP43 chromodomains 2 and 3, residues 264-373; His6-Trx is joined through a cleavable TEV site; In the crystal structure the same range stands inside the fusion m15; also called cpSRP43 CD2CD3 deletion construct; source: E. coli Rosetta2 pLysS, purified (as His6-Trx fusion with a cleavable TEV site; Superdex75)", "T3 sequence (looked up)": "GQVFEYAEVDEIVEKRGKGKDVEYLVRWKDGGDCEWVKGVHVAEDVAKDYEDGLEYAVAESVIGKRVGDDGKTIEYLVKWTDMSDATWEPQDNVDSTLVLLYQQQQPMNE", "test": "SAXS; CD2CD3 alone and with 7 × molar excess of A3CT IV, 298 K"}, "cpSRP43 CD2CD3 [3]": {"target": "T3, cpSRP43 CD2CD3", "test": "crystal structure; His6–Trx–CD2CD3–(GS)3–A3CT IV on one chain, 2.8 Å, two molecules in the asymmetric unit; 20% PEG 3350, 0.2 M Ca(OAc)2, 18 °C"}}, "note": "Where no end group is shown, it is not given here."}
{"binder": "B1", "values": [{"measurement": "Kd", "setting": "full-length cpSRP43", "value": 150, "unit": "µM"}]}
{"binder": "B2", "values": [{"measurement": "binding result", "setting": "[1]", "value": "binds"}]}
{"binder": "B3", "values": [{"measurement": "binding result", "setting": "cpSRP43 CD2CD3 [2]", "value": "binds"}]}
{"binder": "B4", "values": [{"measurement": "binding result", "setting": "cpSRP43 CD2CD3 [3]", "value": "binds"}]}
